Data as given in PMC11406519.

Columns and labels:
[1] = target: GNNV-P R276A (Dragon grouper nervous necrosis virus); assay: AUC; sedimentation velocity, pH 5.0, no divalent ions; 0.25–0.4 mg/mL, 60,000 rpm, 20 °C, absorbance at 280 nm, c(s) model (SEDFIT); monomer to trimer
[2] = target: GNNV-P: Dragon grouper NNV capsid protein P-domain (aa 221–338) plus the flexible linker (aa 214–220), wild type (Dragon grouper nervous necrosis virus); assay: as above

Row | Substance | stoichiometry N [1] | stoichiometry N [2]
1 | GNNV-P R276A (domain or fragment) | 3 | –
2 | GNNV-P: Dragon grouper NNV capsid protein P-domain (aa 221–338) plus the flexible linker (aa 214–220), wild type (domain or fragment) | – | 3
